± gives the standard deviation of the averaged measurements.
Tested on: Saccharomyces cerevisiae
Test: protein stability index of tFT-peptide fusion (C-terminal peptide) (PSI (0-1 scale)); higher = more stable (slower turnover)
Settings: temperature: 30 C
Experimental: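 MPS profiling in S. cerevisiae of the yeast C-terminome library: the last 12 aa of each annotated ORF are fused to the C-terminus of a sfGFP-mCherry timer, after a GGGS linker. Cells are FACS-sorted into 8 mCherry/sfGFP bins and deep-sequenced. PSI runs from 0 (unstable) to 1 (stable); wild type and das1Δ backgrounds, two technical replicates each.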

[1] = genetic background: das1 deletion

In the case of NNVDVSWVDKLV [STB5 C-terminal 12 aa], the protein stability index [1] is reported as 0.712 ± 0.013 and the protein stability index (genetic background: wild type) is reported as 0.714 ± 0.046.
“QNEICQYDNTSP [YGR109W-B C-terminal 12 aa]” showed a protein stability index [1] of 0.7173 ± 0.0057 and a protein stability index (genetic background: wild type) of 0.694 ± 0.012.
Sequence EHKLGNTKYFED [ARP5 C-terminal 12 aa] has a protein stability index [1] of 0.693 ± 0.01 and a protein stability index (genetic background: wild type) of 0.687 ± 0.023.
Work on GTLESFFKRKAK [POL32 C-terminal 12 aa] yielded a protein stability index [1] of 0.732 ± 0.015 and a protein stability index (genetic background: wild type) of 0.707 ± 0.03.
AEIISVRQVDQS [GIT1 C-terminal 12 aa] was tested, and the protein stability index [1] was 0.673 ± 0.017 and the protein stability index (genetic background: wild type) was 0.705 ± 0.051.
AGFGCLDSIILY [GSH2 C-terminal 12 aa] showed a protein stability index [1] of 0.7068 ± 0.0036 and a protein stability index (genetic background: wild type) of 0.732 ± 0.038.
LFTCTDPNDTIE [MMS4 C-terminal 12 aa] showed a protein stability index [1] of 0.721 ± 0.027 and a protein stability index (genetic background: wild type) of 0.72 ± 0.03.
Work on VTGFKDEVLETV [RPS1A C-terminal 12 aa] yielded a protein stability index [1] of 0.7042 ± 0.001 and a protein stability index (genetic background: wild type) of 0.682 ± 0.032.
SRRFYRKIDHLA [YLR400W C-terminal 12 aa] was tested, and the protein stability index [1] was 0.699 ± 0.02 and the protein stability index (genetic background: wild type) was 0.507 ± 0.018.
With LLQSGRYGGNRS [RCI37 C-terminal 12 aa] the protein stability index [1] was 0.683 ± 0.011 and the protein stability index (genetic background: wild type) was 0.663 ± 0.021.
For CRESNLKLIVSG [ARR2 C-terminal 12 aa], the protein stability index [1] was 0.6753 ± 0.002 and the protein stability index (genetic background: wild type) was 0.712 ± 0.016.
Work on IQISDVSMSPSL [PEX31 C-terminal 12 aa] yielded a protein stability index [1] of 0.6811 ± 0.00011 and a protein stability index (genetic background: wild type) of 0.717 ± 0.019.
DLEDEIEMEDVV [TFG2 C-terminal 12 aa] showed a protein stability index [1] of 0.699 ± 0.027 and a protein stability index (genetic background: wild type) of 0.711 ± 0.046.
NVIRVWQVMTAN [ASC1 C-terminal 12 aa] gave a protein stability index [1] of 0.576 ± 0.0091 and a protein stability index (genetic background: wild type) of 0.272 ± 0.016.
ILHERNIPLEKI [TPT1 C-terminal 12 aa] gave a protein stability index [1] of 0.709 ± 0.021 and a protein stability index (genetic background: wild type) of 0.701 ± 0.048.
In the case of TADIVYIDSELD [SPE1 C-terminal 12 aa], the protein stability index [1] is reported as 0.6746 ± 0.0022 and the protein stability index (genetic background: wild type) is reported as 0.694 ± 0.083.
Sequence LKHFIKVFSSKL [ARR1 C-terminal 12 aa] has a protein stability index [1] of 0.825 ± 0.013 and a protein stability index (genetic background: wild type) of 0.89 ± 0.024.
For LNKKSSVKILLY [CMS1 C-terminal 12 aa], the protein stability index [1] was 0.693 ± 0.01 and the protein stability index (genetic background: wild type) was 0.614 ± 0.0071.
With PTIVGGLYYQRP [AAR2 C-terminal 12 aa] the protein stability index [1] was 0.7 ± 0.0021 and the protein stability index (genetic background: wild type) was 0.696 ± 0.012.
KLDLPNVFHKKG [CHS2 C-terminal 12 aa] showed a protein stability index [1] of 0.713 ± 0.027 and a protein stability index (genetic background: wild type) of 0.706 ± 0.037.
In the case of NTFTEHNSNIYY [SPT10 C-terminal 12 aa], the protein stability index [1] is reported as 0.704 ± 0.021 and the protein stability index (genetic background: wild type) is reported as 0.706 ± 0.029.
TLFDLIEKKVTA [TAL1 C-terminal 12 aa] showed a protein stability index [1] of 0.67 ± 0.0085 and a protein stability index (genetic background: wild type) of 0.652 ± 0.028.
VWSLYSRTALET [OAR1 C-terminal 12 aa] gave a protein stability index [1] of 0.6176 ± 0.004 and a protein stability index (genetic background: wild type) of 0.608 ± 0.012.
For HLYSTLLFHSVN [RRG8 C-terminal 12 aa], the protein stability index [1] was 0.728 ± 0.013 and the protein stability index (genetic background: wild type) was 0.543 ± 0.033.
AKKTNKLALTHV [SEC26 C-terminal 12 aa] was tested, and the protein stability index [1] was 0.7167 ± 0.0064 and the protein stability index (genetic background: wild type) was 0.718 ± 0.038.
Sequence TEKDSTTTNYRK [YJL218W C-terminal 12 aa] has a protein stability index [1] of 0.702 ± 0.028 and a protein stability index (genetic background: wild type) of 0.698 ± 0.034.
VLSNLAVKALQN [PRM3 C-terminal 12 aa] showed a protein stability index [1] of 0.68 ± 0.018 and a protein stability index (genetic background: wild type) of 0.646 ± 0.023.
INKASVKFFFFA [YJL119C C-terminal 12 aa] was tested, and the protein stability index [1] was 0.637 ± 0.0095 and the protein stability index (genetic background: wild type) was 0.227 ± 0.0039.
In the case of HQDSAKYTHYYL [YER158C C-terminal 12 aa], the protein stability index [1] is reported as 0.696 ± 0.016 and the protein stability index (genetic background: wild type) is reported as 0.652 ± 0.0081.
SSVVSIPLREIL [YNR048W C-terminal 12 aa] showed a protein stability index [1] of 0.712 ± 0.016 and a protein stability index (genetic background: wild type) of 0.711 ± 0.07.
YTDLASIASGRD [SHS1 C-terminal 12 aa] was tested, and the protein stability index [1] was 0.691 ± 0.016 and the protein stability index (genetic background: wild type) was 0.714 ± 0.092.
SVSYASGYVTIG [MHO1 C-terminal 12 aa] gave a protein stability index [1] of 0.705 ± 0.034 and a protein stability index (genetic background: wild type) of 0.64 ± 0.011.
In the case of QVSLLLGFSSRS [MRX20 C-terminal 12 aa], the protein stability index [1] is reported as 0.698 ± 0.0012 and the protein stability index (genetic background: wild type) is reported as 0.7 ± 0.011.
For AETLLSQRSRDR [DNF2 C-terminal 12 aa], the protein stability index [1] was 0.721 ± 0.028 and the protein stability index (genetic background: wild type) was 0.692 ± 0.048.
FVDDNTPLEHVC [YDL086W C-terminal 12 aa] was tested, and the protein stability index [1] was 0.706 ± 0.011 and the protein stability index (genetic background: wild type) was 0.7331 ± 0.0011.
DIRAHLAEYYSF [PAU7 C-terminal 12 aa] gave a protein stability index [1] of 0.728 ± 0.026 and a protein stability index (genetic background: wild type) of 0.687 ± 0.011.
YPVGQVDRDVCC [TAD3 C-terminal 12 aa] gave a protein stability index [1] of 0.6955 ± 0.0022 and a protein stability index (genetic background: wild type) of 0.685 ± 0.037.
For VNNAPARAKVSK [RCR2 C-terminal 12 aa], the protein stability index [1] was 0.67539 ± 0.00065 and the protein stability index (genetic background: wild type) was 0.669 ± 0.0023.
For HNGKNKNRNSKK [MPP6 C-terminal 12 aa], the protein stability index [1] was 0.691 ± 0.03 and the protein stability index (genetic background: wild type) was 0.669 ± 0.016.
KKYKFKLKFIKN [RNY1 C-terminal 12 aa] was tested, and the protein stability index [1] was 0.7118 ± 0.006 and the protein stability index (genetic background: wild type) was 0.642 ± 0.02.
KKQKVVPLPTDI [SMM1 C-terminal 12 aa] gave a protein stability index [1] of 0.6919 ± 0.0007 and a protein stability index (genetic background: wild type) of 0.654 ± 0.015.
IRLLTYLLRKIE [YLR230W C-terminal 12 aa] was tested, and the protein stability index [1] was 0.654 ± 0.033 and the protein stability index (genetic background: wild type) was 0.351 ± 0.023.
FTFIIIQLFPAL [USE1 C-terminal 12 aa] showed a protein stability index [1] of 0.351 ± 0.016 and a protein stability index (genetic background: wild type) of 0.385 ± 0.015.
In the case of TFAKSSRNKSKL [PCS60 C-terminal 12 aa], the protein stability index [1] is reported as 0.835 ± 0.011 and the protein stability index (genetic background: wild type) is reported as 0.811 ± 0.073.
With DLVAQQVVQDGH [MYO2 C-terminal 12 aa] the protein stability index [1] was 0.7005 ± 0.0019 and the protein stability index (genetic background: wild type) was 0.707 ± 0.019.
EYMIERCRGHVL [YPL108W C-terminal 12 aa] gave a protein stability index [1] of 0.708 ± 0.032 and a protein stability index (genetic background: wild type) of 0.753 ± 0.04.
LVDIITGASSLG [ATP3 C-terminal 12 aa] gave a protein stability index [1] of 0.6894 ± 0.004 and a protein stability index (genetic background: wild type) of 0.719 ± 0.041.
In the case of MGIRLRYNVEPK [RPA135 C-terminal 12 aa], the protein stability index [1] is reported as 0.735 ± 0.041 and the protein stability index (genetic background: wild type) is reported as 0.663 ± 0.014.
NLDNLFMASSLI [AIM6 C-terminal 12 aa] gave a protein stability index [1] of 0.7128 ± 0.0018 and a protein stability index (genetic background: wild type) of 0.658 ± 0.033.
Sequence RREATRISDLLK [FMS1 C-terminal 12 aa] has a protein stability index [1] of 0.695 ± 0.014 and a protein stability index (genetic background: wild type) of 0.703 ± 0.06.
Work on RDLFEIYQKMMQ [MUK1 C-terminal 12 aa] yielded a protein stability index [1] of 0.725 ± 0.02 and a protein stability index (genetic background: wild type) of 0.706 ± 0.056.
Sequence TPLGPKPDIRPP [GTO3 C-terminal 12 aa] has a protein stability index [1] of 0.712 ± 0.013 and a protein stability index (genetic background: wild type) of 0.693 ± 0.017.
Sequence VRKVAQWLQQLT [FSH2 C-terminal 12 aa] has a protein stability index [1] of 0.6838 ± 0.0012 and a protein stability index (genetic background: wild type) of 0.5807 ± 0.0037.
Work on NENKKANGNNCC [YPT31 C-terminal 12 aa] yielded a protein stability index [1] of 0.705 ± 0.017 and a protein stability index (genetic background: wild type) of 0.652 ± 0.036.
With FDAVTKTLEKYA [YKR070W C-terminal 12 aa] the protein stability index [1] was 0.68 ± 0.019 and the protein stability index (genetic background: wild type) was 0.6879 ± 0.0054.
Sequence GTKEYYKGYEYL [MRX16 C-terminal 12 aa] has a protein stability index [1] of 0.6984 ± 0.0016 and a protein stability index (genetic background: wild type) of 0.6641 ± 0.0017.
Sequence YHAVDSTMSPKN [OST4 C-terminal 12 aa] has a protein stability index [1] of 0.693 ± 0.019 and a protein stability index (genetic background: wild type) of 0.719 ± 0.047.
With VISYLLGADIHF [SMF3 C-terminal 12 aa] the protein stability index [1] was 0.712 ± 0.013 and the protein stability index (genetic background: wild type) was 0.7135 ± 0.0039.
With GVETLLDIFMKF [ARG82 C-terminal 12 aa] the protein stability index [1] was 0.74146 ± 0.00055 and the protein stability index (genetic background: wild type) was 0.706 ± 0.02.
GYCFEFTLYNRK [DFR1 C-terminal 12 aa] was tested, and the protein stability index [1] was 0.7243 ± 0.0021 and the protein stability index (genetic background: wild type) was 0.688 ± 0.013.
With STVLINVCKPTY [BAR1 C-terminal 12 aa] the protein stability index [1] was 0.681 ± 0.013 and the protein stability index (genetic background: wild type) was 0.667 ± 0.048.

From the supplement of paper PMC10724198
